Earlier results as cited in patent US6468965B1, “Pharmaceutical composition for oral administration of a mixture of chelating agents” (priority 2002, dated 2002).

Legend:
colon 26 carcinoma = conditions: orally administered; literature report, Nutrition and Cancer 2000
Porphyromonas gingivalis = conditions: literature report, J. Biol. Chem. 2000
[1] = system: VEGF165-Mediated Angiogenesis; conditions: orally administered; literature report, Int. J. Cancer 2001

B1: lactoferrin (protein, UniProt P24627 20-708, looked up)
Lactotransferrin: APRKNVRWCTISQPEWFKCRRWQWRMKKLGAPSITCVRRAFALECIRAIAEKKADAVTLDGGMVFEAGRDPYKLRPVAAEIYGTKESPQTHYYAVAVVKKGSNFQLDQLQGRKSCHTGLGRSAGWIIPMGILRPYLSWTESLEPLQGAVAKFFSASCVPCIDRQAYPNLCQLCKGEGENQCACSSREPYFGYSGAFKCLQDGAGDVAFVKETTVFENLPEKADRDQYELLCLNNSRAPVDAFKECHLAQVPSHAVVARSVDGKEDLIWKLLSKAQEKFGKNKSRSFQLFGSPPGQRDLLFKDSALGFLRIPSKVDSALYLGSRYLTTLKNLRETAEEVKARYTRVVWCAVGPEEQKKCQQWSQQSGQNVTCATASTTDDCIVLVLKGEADALNLDGGYIYTAGKCGLVPVLAENRKSSKHSSLDCVLRPTEGYLAVAVVKKANEGLTWNSLKDKKSCHTAVDRTAGWNIPMGLIVNQTGSCAFDEFFSQSCAPGADPKSRLCALCAGDDQGLDKCVPNSKEKYYGYTGAFRCLAEDVGDVAFVKNDTVWENTNGESTADWAKNLNREDFRLLCLDGTRKPVTEAQSCHLAVAPNHAVVSRSDRAAHVKQVLLHQQALFGKNGKNCPDKFCLFKSETKNLLFNDNTECLAKLGGRPTYEEYLGTEYVTAIANLKKCSTSPLLEACAFLTR
notes: 80 kDa mammalian iron-chelating glycoprotein obtainable from the whey protein of cow's milk
Question: Which “effect on the lung colonization of colon 26 carcinoma” value (colon 26 carcinoma) does the source give for B1 here?
Answer: significant inhibiting effect

Question: What about the “action on growth of the bacteria responsible for gingivitis” value (Porphyromonas gingivalis) of the same molecule?
Answer: inhibiting action

Question: And the effect on angiogenesis [1]?
Answer: inhibiting angiogenesis
